# T1: GFP-9S library array, motif 4 ND N98A;D124N (synthetic construct, N98A;D124N)
# T1 chain: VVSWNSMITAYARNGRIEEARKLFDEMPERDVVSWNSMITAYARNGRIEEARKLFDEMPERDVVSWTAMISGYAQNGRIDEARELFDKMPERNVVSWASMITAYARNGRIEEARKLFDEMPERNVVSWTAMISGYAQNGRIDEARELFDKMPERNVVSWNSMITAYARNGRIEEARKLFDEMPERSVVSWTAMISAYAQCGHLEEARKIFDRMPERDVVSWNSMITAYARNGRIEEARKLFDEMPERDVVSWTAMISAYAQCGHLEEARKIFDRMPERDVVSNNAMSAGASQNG
# T2: GFP-9S library array, motif 4 ND N98D (synthetic construct, N98D)
# T2 chain: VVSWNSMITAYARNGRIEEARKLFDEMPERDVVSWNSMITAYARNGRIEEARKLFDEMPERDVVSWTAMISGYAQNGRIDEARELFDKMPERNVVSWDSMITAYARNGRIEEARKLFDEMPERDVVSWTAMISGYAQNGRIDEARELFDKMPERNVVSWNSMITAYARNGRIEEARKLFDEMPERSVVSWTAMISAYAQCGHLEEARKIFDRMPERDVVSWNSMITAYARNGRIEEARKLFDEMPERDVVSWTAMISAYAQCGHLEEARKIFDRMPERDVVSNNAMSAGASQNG
# T3: GFP-9S library array, motif 4 ND N98K;D124R (synthetic construct, N98K;D124R)
# T3 chain: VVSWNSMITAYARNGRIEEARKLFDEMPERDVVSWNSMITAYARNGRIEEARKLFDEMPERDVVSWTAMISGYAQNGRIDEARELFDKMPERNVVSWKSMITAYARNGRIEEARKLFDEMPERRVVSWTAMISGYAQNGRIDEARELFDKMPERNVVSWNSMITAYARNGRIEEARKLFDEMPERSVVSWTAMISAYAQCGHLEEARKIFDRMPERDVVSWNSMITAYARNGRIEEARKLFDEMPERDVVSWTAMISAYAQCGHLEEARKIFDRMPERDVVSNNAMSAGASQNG
# T4: GFP-9S library array, motif 4 ND N98G;D124I (synthetic construct, N98G;D124I)
# T4 chain: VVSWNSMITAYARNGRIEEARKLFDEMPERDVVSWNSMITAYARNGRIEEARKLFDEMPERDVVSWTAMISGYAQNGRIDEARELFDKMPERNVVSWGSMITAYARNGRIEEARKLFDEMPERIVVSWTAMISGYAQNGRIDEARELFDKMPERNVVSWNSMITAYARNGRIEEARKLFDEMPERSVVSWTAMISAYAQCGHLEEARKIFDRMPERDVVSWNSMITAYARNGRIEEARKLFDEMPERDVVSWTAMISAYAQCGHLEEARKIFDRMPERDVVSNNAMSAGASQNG
# T5: GFP-9S library array, motif 4 ND D124Q (synthetic construct, D124Q)
# T5 chain: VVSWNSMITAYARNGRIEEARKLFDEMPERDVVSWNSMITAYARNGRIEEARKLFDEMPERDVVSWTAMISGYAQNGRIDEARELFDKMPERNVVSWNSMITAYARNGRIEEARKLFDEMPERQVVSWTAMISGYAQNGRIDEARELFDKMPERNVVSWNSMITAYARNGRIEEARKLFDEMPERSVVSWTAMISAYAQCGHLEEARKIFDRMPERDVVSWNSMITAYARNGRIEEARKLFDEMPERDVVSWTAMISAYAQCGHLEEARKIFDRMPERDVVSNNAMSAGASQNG
# How the values were obtained:
# Test in all cases: high-throughput RNA pulldown from lysate on Ni-NTA beads; HRP: 50 mM Tris pH 8, 150 mM NaCl, 1 mM beta-mercaptoethanol, 50 ug/ml BSA, 3 ug/ml yeast RNA, 0.5% heparin; ITC and FP: Tris pH 8, 200 mM KCl, 5% glycerol; MST: 50 mM Tris pH 8, 200 mM NaCl, 1 mM DTT, BSA, heparin, 0.05% Tween 20
# Settings in all cases: tags: N-terminal His-eGFP
# [1] = biological target: T1, GFP-9S library array, motif 4 ND …
# [2] = biological target: T2, GFP-9S library array, motif 4 ND N98D
# [3] = biological target: T3, GFP-9S library array, motif 4 ND …
# [4] = biological target: T4, GFP-9S library array, motif 4 ND …
# [5] = biological target: T5, GFP-9S library array, motif 4 ND D124Q
Binder,Kd ([1]; label: 5' Cy5) [nM],Kd ([2]; label: 5' Cy5) [nM],Kd ([3]; label: 5' Cy5) [nM],Kd ([4]; label: 5' Cy5) [nM],Kd ([5]; label: 5' Cy5) [nM],Kd ([1]; label: 5' IRDye 800CW) [nM],Kd ([2]; label: 5' IRDye 800CW) [nM],Kd ([3]; label: 5' IRDye 800CW) [nM],Kd ([4]; label: 5' IRDye 800CW) [nM],Kd ([5]; label: 5' IRDye 800CW) [nM]
AUUACACGUGA (ssRNA) [Cy5-rpoA],66,395,42.9,105,68,,,,,
AUUAUACGUGA (ssRNA) [IR-rpoA-U],,,,,,44,315,66.9,205,25.9
AUUAAACGUGA (ssRNA) [IR-rpoA-A],,,,,,137,531,139,315,490
AUUAGACGUGA (ssRNA) [Cy5-rpoA-G],123,55.1,55.5,113,898,,,,,

# Reference: PMC8809517, “Cofactor-independent RNA editing by a synthetic S-type PPR protein”
